The values below are quoted from earlier work in article PMC11381289.

Like-named read-outs stand apart in the source and are kept apart here.

Series [1] concerns the target TL (Mus musculus) (UniProt P14432).
The target is the same in series [2]. This is another data set of the same source.

Sequence of UniProt P14432 (P14432 27-314): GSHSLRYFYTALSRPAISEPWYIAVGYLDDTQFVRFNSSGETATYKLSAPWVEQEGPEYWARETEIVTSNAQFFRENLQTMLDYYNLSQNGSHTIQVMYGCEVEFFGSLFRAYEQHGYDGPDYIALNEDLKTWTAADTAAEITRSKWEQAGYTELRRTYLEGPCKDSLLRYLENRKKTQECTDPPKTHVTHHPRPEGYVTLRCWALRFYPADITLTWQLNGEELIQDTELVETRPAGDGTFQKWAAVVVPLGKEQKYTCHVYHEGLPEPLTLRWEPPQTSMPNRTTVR

Broadly, the Kd is the constant that tells how readily two partners part at equilibrium. With CD8αα (from UniProt P01731), the equilibrium dissociation constant (Kd) in series [1] was 12 µM.
Take CD8αβ (from UniProt P01731): in series [2], the dissociation constant (Kd) was over 90 µM.
